Assay [1] concerns the target T1, CD5 antigen (Octet affinity determination, Example 8) (UniProt P06127 25-372, limits assumed).
T1 sequence (looked up): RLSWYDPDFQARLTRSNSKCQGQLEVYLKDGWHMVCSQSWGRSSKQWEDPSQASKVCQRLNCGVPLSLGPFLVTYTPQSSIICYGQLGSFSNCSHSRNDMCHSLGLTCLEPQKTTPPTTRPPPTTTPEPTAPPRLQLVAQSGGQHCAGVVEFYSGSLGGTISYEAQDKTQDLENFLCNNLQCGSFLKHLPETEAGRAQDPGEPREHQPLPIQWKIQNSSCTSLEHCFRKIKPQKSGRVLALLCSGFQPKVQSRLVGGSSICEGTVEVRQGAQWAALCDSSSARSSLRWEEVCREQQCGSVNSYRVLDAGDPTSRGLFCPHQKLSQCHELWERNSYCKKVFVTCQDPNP
The assay can be described thus: BLI (Octet), IgG loaded on the biosensor, CD5 antigen 400 to 12.5 nM, 1:1 model.

For assay [2], the target named is T2, Biotinylated Recombinant human BAFFR Protein (Kactus, BAF-HM40RB) (human, UniProt Q96RJ3 7-71, limits assumed, biotinylated).
T2 construct: Non-related control antigen; also called Kactus-BAFFR-his-Bio; not shown: his tag
T2 sequence (looked up): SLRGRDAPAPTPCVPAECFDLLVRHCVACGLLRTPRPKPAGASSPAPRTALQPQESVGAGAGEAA
Kind of assay: phage ELISA. (In general: In an ELISA, binding on a coated surface is turned into a signal by an enzyme label.)

For assay [3], the target named is T3, Recombinant biotinylated Human CD19 Protein-Fc (Kactus, CD2-HE121) (human, UniProt P15391 20-291, biotinylated).
T3 construct: Control antigen; also called CD19-Fc-Bio; Kactus-CD19-FC-Bio; not shown: Fc tag
T3 sequence (looked up): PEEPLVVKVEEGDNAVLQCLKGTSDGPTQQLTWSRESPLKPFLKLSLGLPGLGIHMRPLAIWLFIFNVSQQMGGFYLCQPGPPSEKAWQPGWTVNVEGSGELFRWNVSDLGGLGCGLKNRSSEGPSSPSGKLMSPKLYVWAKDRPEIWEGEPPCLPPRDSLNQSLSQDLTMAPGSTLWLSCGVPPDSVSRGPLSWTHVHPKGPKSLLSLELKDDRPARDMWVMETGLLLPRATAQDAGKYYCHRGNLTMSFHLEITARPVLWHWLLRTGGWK
Kind of assay: phage ELISA.

Assay [4] concerns the target T4, Streptavidin (Pierce, 21125) (UniProt P22629 37-163, limits assumed).
T4 construct: Non-related control antigen; also called SA
Kind of assay: phage ELISA.

Assay [5] addresses T5, human CD5 on the cell surface (human, UniProt P06127 25-495).
T5 construct: whole, on cells; One molecule for CD5 on all cell lines; also called natural CD5 on the cell membrane; CD5 antigen on Jurkat, CCRF-CEM, MOLT4 cells
T5 sequence (looked up): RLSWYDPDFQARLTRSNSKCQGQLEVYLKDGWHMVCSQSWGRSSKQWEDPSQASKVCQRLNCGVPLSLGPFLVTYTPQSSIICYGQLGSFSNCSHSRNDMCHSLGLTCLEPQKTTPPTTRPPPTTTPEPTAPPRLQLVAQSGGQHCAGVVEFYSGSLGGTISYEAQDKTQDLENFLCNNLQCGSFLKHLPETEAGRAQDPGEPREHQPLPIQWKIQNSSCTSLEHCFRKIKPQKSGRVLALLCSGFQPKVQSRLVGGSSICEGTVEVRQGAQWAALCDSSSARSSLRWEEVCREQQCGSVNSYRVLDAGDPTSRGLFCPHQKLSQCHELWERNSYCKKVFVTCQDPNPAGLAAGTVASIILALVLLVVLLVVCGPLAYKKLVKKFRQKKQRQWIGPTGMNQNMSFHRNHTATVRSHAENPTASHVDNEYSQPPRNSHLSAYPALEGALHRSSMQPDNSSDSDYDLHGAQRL
The assay can be described thus: phage FACS on Jurkat cells (CD5 positive), anti-M13 + FITC anti-mouse IgG, median of FITC-A.

Assay [6] concerns the target T5, human CD5 on the cell surface. The assay can be described thus: phage FACS on CCRF-CEM cells (CD5 positive), anti-M13 + FITC anti-mouse IgG, median of FITC-A.

This is an account of results in patent US20240002505A1 (NANJING IASO BIOTECHNOLOGY, published 2024).

T4 sequence (P22629 37-163 limits assumed): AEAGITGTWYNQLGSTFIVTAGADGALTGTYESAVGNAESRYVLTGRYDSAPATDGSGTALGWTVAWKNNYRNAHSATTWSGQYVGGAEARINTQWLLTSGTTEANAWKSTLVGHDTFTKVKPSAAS

B1: Clone 35 anti-CD5 IgG (antibody, V domains shown)
VH: QVQLVESGGGLVQPGGSLRLSCAASGFTFSSYAMSWVRQTPGKGLEWVSTITDSGDITYYTASVQGRFTISRDNSKNTLYLQMNSLRAEDTAVYYCARMSSHWYFSADYWGQGTLVTVSS
VL: QSVLTQPPSVSAAPGQKVTISCSGSSSNIGNNYVSWYQQLPGTAPKLLIYDNNKRPSGIPDRFSGSKSGTSATLGITGLQTGDEADYYCGTWDSSLSAVVFGGGTKLTVLG
notes: The VH entry as printed begins with MA carried over from the scFv
In general, Kd refers to the free concentration of one partner at which half of the binding sites on the other are occupied at equilibrium, for simple one-to-one binding. A higher Kd goes with a looser complex. Usually koff stands for the rate constant with which the complex falls apart. A lower koff goes with slow dissociation. The kon is a measure of how fast the partners come together. Low values mean slow association, high ones fast association. Turning to B1, in assay [1], binding was characterised by a dissociation constant (Kd) of 13.6 nM, the koff is 0.000382 s⁻¹ and the kon was determined as 28100 M⁻¹ s⁻¹.

B2: Clone 32 anti-CD5 IgG (antibody, V domains shown)
VH: QVQLVESGGGLVKPGGSLRLSCAASGFTFSSYSMNWVRQAPGKGLEWVSSISSSSSYIYYADSVKGRFTISRDNAKNSLYLQMNSLRAEDTAVYYCARGNPWYGVDYWGQGTLVTVSS
VL: QSVLTQPPSVSAAPGQKVTISCSGSNSNIGNNYVSWYQQLPGTAPKRLIYDNNKRPSGIPDRFSGSKSGTSATLGITGLQTGDEADYYCGIWDSSLDAYVFGTGTKVTVLG
Consider B2, for which, in assay [1], the Kd is 28.3 nM, the koff turned out to be 0.00217 s⁻¹ and the kon stood at 76500 M⁻¹ s⁻¹.

B3: Clone 10 anti-CD5 IgG (antibody, V domains shown)
VH: EVQLLESGGGLVKPGGSLRLSCAASGFTFNNYTMNWVRQAPGKGLEWVSSISSSSSYIYYADSVKGRFTISRDNAKNSLFLQMNSLRGEDTAVYYCARYFSGSAGDYWGQGTLVTVSS
VL: QSVVTQPPSVSGAPGQRVTISCTGSSSNIGAGYDVHWYQQLPGTAPKLLIYGNINRPSGVPDRFSGSKSGTSASLAITGLQAEDEADYYCGTWDNSLSAHYVFGTGTKVTVLG
Regarding B3, in assay [1], the Kd stood at 4.49 nM, the koff is 0.00143 s⁻¹ and the kon was 318000 M⁻¹ s⁻¹.

B4: phage monoclone #6 (scFv)
scFv: NFMLTQPHSVSESPGKTVTISCTGNSGSIARNYVQWYQQRPGSAPTMLIYEDNRRPSGVPDRFSGSIDSSSNSASLTISGLKTEDEADYYCQSYDDNTSWVFGGGTKLTVLGSRGGGGSGGGGSGGGGSLEMAEVQLVQSGAEVKKPGSSVKVSCKASGGTFSSNAITWVRQAPGQGLEWMGGIIPMFGTTDYAQKFQGRVTMTADESTSTAYMELRSLRSEDTAVYYCARDGGGRHPYYYYGMDVWGQGTTVTVSS
notes: also called scFv6
As to B4, the binding result in assay [2], in assay [3] and in assay [4] was “no binding” each time. Also, the “Median (B1-A)” value in assay [5] came out at 71.8; in assay [6], 1.71.

B5: phage monoclone #35 (scFv)
scFv: QSVLTQPPSVSAAPGQKVTISCSGSSSNIGNNYVSWYQQLPGTAPKLLIYDNNKRPSGIPDRFSGSKSGTSATLGITGLQTGDEADYYCGTWDSSLSAVVFGGGTKLTVLGSRGGGGSGGGGSGGGGSLEMAQVQLVESGGGLVQPGGSLRLSCAASGFTFSSYAMSWVRQTPGKGLEWVSTITDSGDITYYTASVQGRFTISRDNSKNTLYLQMNSLRAEDTAVYYCARMSSHWYFSADYWGQGTLVTVSS
notes: also called scFv35
As for B5, the binding result in assay [2], in assay [3] and in assay [4] was “no binding” each time.

B6: phage monoclone #10 (scFv)
scFv: QSVVTQPPSVSGAPGQRVTISCTGSSSNIGAGYDVHWYQQLPGTAPKLLIYGNINRPSGVPDRFSGSKSGTSASLAITGLQAEDEADYYCGTWDNSLSAHYVFGTGTKVTVLGSRGGGGSGGGGSGGGGSLEEVQLLESGGGLVKPGGSLRLSCAASGFTFNNYTMNWVRQAPGKGLEWVSSISSSSSYIYYADSVKGRFTISRDNAKNSLFLQMNSLRGEDTAVYYCARYFSGSAGDYWGQGTLVTVSS
notes: also called scFv10
Turning to B6, the binding result in assay [2], in assay [3] and in assay [4] was “no binding” each time. In addition, the “Median (B1-A)” value in assay [5] was 31.6; in assay [6], 17.1.

B7: H65 anti-CD5 IgG (antibody, V domains shown)
VH: QIQLVQSGPELKKPGETVKISCKASGYTFTNYGMNWVKQAPGKGLRWMGWINTHTGEPTYADDFKGRFAFSLETSASTAYLQINNLKNEDTATYFCTRRGYDWYFDVWGAGTTVTVSS
VL: DIKMTQSPSSMYASLGERVTITCKASQDINSYLSWFHHKPGKSPKTLIYRANRLVDGVPSRFSGSGSGQDYSLTISSLDYEDMGIYYCQQYDESPWTFGGGTKLEIK
In assay [1], B7 gave a Kd of 2.25 nM, a koff of 0.000813 s⁻¹ and a kon of 361000 M⁻¹ s⁻¹.

B8: phage monoclone #32 (scFv)
scFv: QVQLVESGGGLVKPGGSLRLSCAASGFTFSSYSMNWVRQAPGKGLEWVSSISSSSSYIYYADSVKGRFTISRDNAKNSLYLQMNSLRAEDTAVYYCARGNPWYGVDYWGQGTLVTVSSTSGGGGSGGGGSGGGGSELQSVLTQPPSVSAAPGQKVTISCSGSNSNIGNNYVSWYQQLPGTAPKRLIYDNNKRPSGIPDRFSGSKSGTSATLGITGLQTGDEADYYCGIWDSSLDAYVFGTGTKVTVLG
notes: also called scFv32
B8: the binding result in assay [2], in assay [3] and in assay [4] was “no binding” each time.

B9: phage monoclone #7 (scFv)
scFv: QSVVTQPPSVSAAPGQKATISCSGSSSNIGNNDVSWYQQLPGTAPKLLIQDNDKRPSGIPDRFSGSKSGTSATLGITGLQTGDEADYYCAVWDSSLSAAVFGPGTKVTVLGSRGGGGSGGGGSGGGGSLEMAEVQLVQSGAEVKKPGESLKISCKGSGYSFTSYWIGWVRQMPGKGLEWMGIIYPDDSDTTYSPSFQGQVTMSVDKSISTAYLQWNSLQASDTAMYYCARMSLTSYLATDGWGQGTLVTVSS
notes: also called scFv7
B9: the binding result in assay [2], in assay [3] and in assay [4] was “no binding” in each case. For the same molecule, the “Median (B1-A)” value in assay [5] was 28.3; in assay [6], 12.4.

B10: phage monoclone #9 (scFv)
scFv: QPVLTQPPSVSGSPGQSVTISCTGTSDDIGNYKRVSWYQQPPGTAPKLMIYEVTNRPPGVPNRFSGSKSGNTASLTISGLQAEDEADYYCSSYASGDTYVFGTGTKVTVLGSRGGGGSGGGGSGGGGSLEQVQLVQSGAEVEKPGASVKISCKASTYTFTNYYIHWVRQAPGQGLEWMGMINPSGDTTSYAQKFQGRVTMTRDTSTSTVYMELSSLRSEDTAVYYCARLSWYWGGSFDDWGQGTLVTVSS
notes: also called scFv9
For the molecule B10, the binding result in assay [2], in assay [3] and in assay [4] was “no binding” throughout. The entries for the “Median (B1-A)” value in assay [5] and in assay [6] were 12.8 and 3.37, respectively.
